Results as given in PMC10033678, “The RRM-mediated RNA binding activity in T. brucei RAP1 is essential for VSG monoallelic expression”.

Key:
[1] = molecular target: T1, TbRAP1 639-733 (RRM) (Trypanosoma brucei) (UniProt C1JEX5); assay: fluorescence polarization; details: EMSA: 20 mM HEPES pH 7.9, 235 mM KCl, 1 mM MgCl2, 0.1 mM EDTA, 100 ng/ul BSA, 5% glycerol, 1 mM DTT, room temp 30 min; FP: 20 mM sodium phosphate pH 7.0, 50 mM …
T1 sequence: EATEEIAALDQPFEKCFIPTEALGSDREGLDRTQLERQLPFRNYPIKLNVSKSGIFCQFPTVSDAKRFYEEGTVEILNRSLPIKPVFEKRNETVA

[2] = molecular target: TbRAP1 639-761 5A (Trypanosoma brucei, UniProt C1JEX5 639-761, R737A;K738A;R739A;R740A;R741A); assay: fluorescence polarization; EMSA: 20 mM HEPES pH 7.9, 235 mM KCl, 1 mM MgCl2, 0.1 mM EDTA, 100 ng/ul BSA, 5% glycerol, 1 mM DTT, room temp 30 min; FP: 20 mM sodium phosphate pH 7.0, 50 mM; details: protein: recombinant; label: 5' 6-FAM
[3] = molecular target: T2, TbRAP1 639-761 (RRM+DB) (Trypanosoma brucei, UniProt C1JEX5 639-761); assay: as above; details: protein: recombinant; tags: none (TrxA-His6 removed by 3C for EMSA); label: 5' 6-FAM
[4] = molecular target: T2, TbRAP1 639-761 (RRM+DB); assay: NMR titration; EMSA: 20 mM HEPES pH 7.9, 235 mM KCl, 1 mM MgCl2, 0.1 mM EDTA, 100 ng/ul BSA, 5% glycerol, 1 mM DTT, room temp 30 min; FP: 20 mM sodium phosphate pH 7.0, 50 mM; details: protein: recombinant; tags: none (TrxA-His6 removed by 3C for EMSA)
[5] = molecular target: T3, TbRAP1 639-733 2FL (Trypanosoma brucei, UniProt C1JEX5 639-733, F655L;F694L); assay: NMR titration; 3x molar excess RNA; EMSA: 20 mM HEPES pH 7.9, 235 mM KCl, 1 mM MgCl2, 0.1 mM EDTA, 100 ng/ul BSA, 5% glycerol, 1 mM DTT, room temp 30 min; FP: 20 mM sodium phosphate pH 7.0, 50 mM; details: protein: recombinant; tags: none (TrxA-His6 removed by 3C for EMSA)
[6] = molecular target: T4, TbRAP1 639-733 (RRM) (Trypanosoma brucei, UniProt C1JEX5 639-733); assay: NMR titration; EMSA: 20 mM HEPES pH 7.9, 235 mM KCl, 1 mM MgCl2, 0.1 mM EDTA, 100 ng/ul BSA, 5% glycerol, 1 mM DTT, room temp 30 min; FP: 20 mM sodium phosphate pH 7.0, 50 mM; details: protein: recombinant, tags: none (TrxA-His6 removed by 3C for EMSA)
[7] = molecular target: T4, TbRAP1 639-733 (RRM); assay: EMSA; EMSA: 20 mM HEPES pH 7.9, 235 mM KCl, 1 mM MgCl2, 0.1 mM EDTA, 100 ng/ul BSA, 5% glycerol, 1 mM DTT, room temp 30 min; FP: 20 mM sodium phosphate pH 7.0, 50 mM; details: protein: recombinant; tags: none (TrxA-His6 removed by 3C for EMSA); label: 32P end label
[8] = molecular target: T2, TbRAP1 639-761 (RRM+DB); assay: as above; details: protein: recombinant, tags: none (TrxA-His6 removed by 3C for EMSA)
[9] = molecular target: TH6-TbRAP1 639-761 2FA&5A (Trypanosoma brucei, UniProt C1JEX5 639-761, F655A;F694A;R737A;K738A;R739A;R740A;R741A); assay: as above; details: protein: recombinant; tags: TrxA-His6
[10] = molecular target: TH6-TbRAP1 639-761 5A (Trypanosoma brucei, UniProt C1JEX5 639-761, R737A;K738A;R739A;R740A;R741A); assay: as above; details: protein: recombinant, tags: TrxA-His6
[11] = molecular target: TbRAP1 639-733 2FA (Trypanosoma brucei, UniProt C1JEX5 639-733, F655A;F694A); assay: as above; details: protein: recombinant, tags: none (TrxA-His6 removed by 3C)
[12] = molecular target: TbRAP1 639-733 2FQ (Trypanosoma brucei, UniProt C1JEX5 639-733, F655Q;F694Q); assay: as above; details: protein: recombinant, tags: none (TrxA-His6 removed by 3C)
[13] = molecular target: T3, TbRAP1 639-733 2FL; assay: as above; details: protein: recombinant, tags: none (TrxA-His6 removed by 3C for EMSA)
[14] = molecular target: TH6-TbRAP1 639-733 (Trypanosoma brucei, UniProt C1JEX5 639-733); assay: as above; details: protein: recombinant; tags: TrxA-His6; label: 32P
[15] = molecular target: TH6-TbRAP1 639-761 (Trypanosoma brucei, UniProt C1JEX5 639-761); assay: as above; details: protein: recombinant; tags: TrxA-His6; label: 32P

Molecule: UGAUAUAUUUUAACAC [6-FAM-16-VSG-UTR]
- Kd [1]: 929 µM

Molecule: UGAUAUAUUUUAACAC (ssRNA) [6-FAM-16-VSG-UTR]
- Kd [2]: ~969 µM
- Kd [3]: ~258 µM

Molecule: AAAACUUUUUGAUAUAUUUUAACACCAAAACCAG (ssRNA) [34-VSG-UTR]
- binding result [4]: binds
- binding result [5]: no binding

Molecule: UUAGGGUUAGGG (ssRNA) [(UUAGGG)2]
- binding result [6]: no binding

Molecule: ACAGACCACUACAAGAUACACAGUACAACCAACCA (ssRNA) [35-random]
- binding result ([6]; label: 32P end label in EMSA): no binding

Molecule: UUGCUACUUGAAAACUUUUUGAUAUAUUUUAACAC (ssRNA) [35-VSG-UTR]
- binding result [7]: binds
- binding result ([8]; label: 32P end label): binds

B1: 170-VSG-UTR (ssRNA)
RNA: GGGCGAAUUGGGUACCGGGCCCCCCCUCGAGGUCGACGGUAUCGAUAAGCUUGAUAUCGAAUUCAAUUCAUUUCCCCCCUCAAAUUUCCCCCCUCCUUUUAAAAUUUUCCUUGCUACUUGAAAACUUUUUGAUAUAUUUUAACACCAAAACCAGCCGAGAUUUGGGAUCC
- binding result [9]: no binding
- binding result [10]: binds
- binding result [11]: no binding
- Kd [8]: ~0.173 µM
- binding result [12]: no binding
- binding result [13]: no binding

B2: 170-no-VSG (ssRNA)
RNA: GGGCGAAUUGGGUACCGGGCCCCCCCUCGAGGUCGACGGUAUCGAUAAGCUUGAUAUCGAAUUCAAUUCCAAAGAAGCCAUGCGCCGUGCAGAGCAGGAAAAAGCCACACGGGAACUCCUCCUGCAACAAACUUCAGCACCACAUGCAUCAUCAGUUACAUCCGGGAUCC
- binding result [14]: binds
- binding result [15]: binds
- binding result ([10]; label: 32P): binds
- binding result ([11]; label: 32P): no binding
- binding result ([8]; label: 32P): binds
- binding result ([12]; label: 32P): no binding
- binding result ([13]; label: 32P): no binding

B3: 80-dsDNA (dsDNA)
DNA 1: CGTGCAGAGCAGGAAAAAGCCACACGGGAACTCCTCCTGCAACAAACTTCAGCACCACATGCATCATCAGTTACATCCGG
DNA 2: CCGGATGTAACTGATGATGCATGTGGTGCTGAAGTTTGTTGCAGGAGGAGTTCCCGTGTGGCTTTTTCCTGCTCTGCACG
- binding result ([8]; label: 32P Klenow, blunt): binds
